Test results from the DeepSol protein solubility set.

Assay: soluble on expression in E. coli; label from the status in PepcDB or PDB records

| Sequence | soluble on expression in E. coli |
| --- | --- |
| MNAADDKTIVREYFNSTGFDRWKRIYGDGEVNKVQLDIRNGHQQTVDSVIGWLKNDGNLAELSICDAGCGVGSLSIPLATEGAKVYASDISEKMVEEGKQRALETLGNAENPTFAVQDLESLSGSYHTVICLDVLIHYPQEKADEMISHLCSLAQSRIILSFAPKTCALTLLKKIGSFFPGPSKTTRAYLHREADVIKILESNGFAIQRKEFTKTRFYFSRILEATRSLEHHHHHH | soluble |
| MEQEAERRRQPQIKQEPESEEEEEEKQEKEEKREEPVEEEEEPEQKPCLKPTLRPISSAPSVSSASGNATPNTPGDESPCGIIIPHENSPDQQQPEEHRPKIGLSLKLGASNSPGQPNSVKRKKLPVDSVFNKFEDEDSDDVPRKRKLVPLDYGEDDKNATKGTVNTEEKRKHIKSLIEKIPTAKPELFAYPLDWSIVDSILMERRIRPWINKKIIEYIGEEEATLVDFVCSKVMAHSSPQSILDDVAMVLDEEAEVFIVKMWRLLIYETEAKKIGLVK | soluble |
| TPIPHKITSFAEQMRGLRSESKVLELVVIPADHSIAELLKMKENEPVNKLVRVRYAEGEPLQYHTSYIPWKAAPGLAQEECTGSLFELLRTKYNIEISRGTESIEPILTDETISGHLLTNVGAPAFLSESLTYDKNEEVVEYAQIITRGDRTKFTVEQSYHS | not soluble |
| MGSDKIHHHHHHMRREEMWKLINATIEPIDTETSSSHILSEQDVNESTSGVIFIHTVGVMPVTVNDLIEEGRCARTDLSYADVILASRPVEEERTPVVYLNPDMNDASFYLLENAREIVPADLAKDVLLDRIVRYKRVQRVVDAVIVTDDPHLRRLLERELTKNFETLSLYERAEVFLEQHVATRPYLLVFSSALPRADGLELLLRAKQETIVPFHAIMISMYNRERDHVLAIERGVDGIMTLPLKVEEFRAWVSRLEGVHG | not soluble |
| MKSIIIAAPHSGSGKTTITLGIMECLKRRGLTVAPFKVGPDFIDPGYHRLICGRPSVNLDGWMCGGDFVQETFFHHAAGADIAVVEGVMGLFDGIGGVSDEGSTAEVAKLLGGPVVLVADAKGQARSVAALVKGFADFDPEVRVVGVIFNNVASDAHGRILREAVESHLPDVRVLGCIPRDESLSIPSRHLGLFTVDENPLPAEFLDHLVEVVREHVDLGMLWSVATLQGASDVKRRQDAPRREPVRIGVARDAAFCFVYEDNLRLLREAGAELVEFSPLADRELPEGVAGLYLPGGYPEVFADVLADNTPMKDAVRGAVVGEMPVYAECGGFIYLSRGVTGMRDDLESFNEFVGIFPVATLMLPRRKALGYREVELAADSIIGPVGAMARGHEFHYSEMEAMPPEVERLYRVRRAGIDLGTEGYRHRNCLASYVHIHFGSCPDMAEAFVNHCRNYAQRSHSLEHHHHHH | soluble |
| MNKWSRLYVITVRRTFPGRRNIVLTQYWNKSKKMSDESNDVKWNDALTPLQLMVLRDKATERPNTGAYLHTNESGVYHCANCDRPLYSSKAKFDARCGWPAFYEEVSPGAITYHRDNSLMPARVEICCARCGGHLGHVFEGEGWKQLLNLPKDTRHCVNSASLNLKKD | not soluble |
| MGSDKIHHHHHHMVAKKKILFFMWSFSLGGGAEKILSTIVSNLDPEKYDIDILEMEHFDKGYESVPKHVRILKSLQDYRQTRWLRAFLWRMRIYFPRLTRRLLVKDDYDVEVSFTIMNPPLLFSKRREVKKISWIHGSIEELLKDSSKRESHRSQLDAANTIVGISKKTSNSIKEVYPDYTSKLQTIYNGYDFQTILEKSQEKIDIEIAPQSICTIGRIEENKGSDRVVEVIRLLHQEGKNYHLYFIGAGDMEEELKKRVKEYGIEDYVHFLGYQKNPYQYLSQTKVLLSMSKQEGFPGVYVEALSLGLPFISTDVGGAEELSQEGRFGQIIESNQEAAQAITNYMTSASNFDVDEASQFIQQFTITKQIEQVEKLLEE | not soluble |
| MSQPLTTNSVLVEEAAADGDSSAAAPPLFDYHRIDQKLLQNIVYDALVWSTLNCLLVGDKSVQRSGRVPGVGLVHLPLSLLPGPFPESHWKQGCELAPIFNELVDRVSLDGKFLQESLSRTKNADEFTSRLLDIHSKMLQINKKEDIRMGIVRSDYMIDEKTKSLLQIEMNTISTSFALIGCLMTGLHKSLLSQYGKFLGLNSNRVPANNAVDQSAEALAKAWSEYNNPRAAILVVVQVEERNMYEQHYISALLREKHHIRSIRKTLTEIDQEGKILPDGTLSVDGQAISVVYFRAGYTPKDYPSESEWRARLLMEQSSAIKCPTISYHLVGTKKIQQELAKPGVLERFVENKDHIAKLRACFAGLWSLEDSDIVKKAIENPELFVMKPQREGGGNNIYGDELRETLLKLQEAGSQEDAAYILMQRIFPATSPAILVRDGNWDTGHVISEAGIFGTYLRNKDKIIINNESGYMVRTKISSSYEGGVLPGFGVVDTVYLT | soluble |
| MSDVAEEKAEFLVIRTYGSESFRKECADLIEKELHKLNATIARVPVGEFVAYAENAVKNETDSEAVGSSSVKRENSANDSPANTNDVDIVSSPVKRGRGRKAKNPSADADVNDTGSSPVKKGRGRPIKNPSADAGSPLVKKGRGRRAQTPAADTDAIDTASSPVKKGRGRPAKNPSADAGSPLVKKGRGRQAKNLAADTDAIDTASSPVKKGRGRPLKKTAAEADVNGLGSPSANRITGCPPSTKVSNQSSPPEPAVNESEEADEPVLKRGRSVKQPKDESESDDEDAEKAPAAIPKKRGRPGKSAIDAFFDGSD | soluble |
| MSLGMKSNEYNKGNYEAHKAYYAGTYEYGTDYDVEDDLYSLEFDDELLNDELEYLEDIGEPFYYEDLDNDFDNTLENQVEKDTYAALENKLRKYISKYNCYFGIYFVDLESGKEFGINDTEEFFAASTFKIPLNLYVYDMIRKGMLDPMTSLEYTEEDFEGGTGIIWNNESFGKTFTIKELLRLSIVYSDNVAVNMLLRCVGKANVKEYMRRLGGVVVDDGKNVSCPRDMAMYLKEVYELSENGDPWGRELVQNMINTKFYDRLPVLLPKNLKIAHKTGNYTGVVHDVGIVYAEKPYIVVVMTKNVKNGQSANKAIANISKMIYDYVVKQSGKDEGHHHHHH | soluble |
| MSAFQAFVVNKTETEFTAGVQTISMDDLPEGDVLVRVHYSSVNYKDGLASIPDGKIVKTYPFVPGIDLAGVVVSSQHPRFREGDEVIATGYEIGVTHFGGYSEYARLHGEWLVPLPKGLTLKEAMAIGTAGFTAALSIHRLEEHGLTPERGPVLVTGATGGVGSLAVSMLAKRGYTVEASTGKAAEHDYLRVLGAKEVLAREDVMAERIRPLDKQRWAAAVDPVGGRTLATVLSRMRYGGAVAVSGLTGGAEVPTTVHPFILRGVSLLGIDSVYCPMDLRLRIWERLAGDLKPDLERIAQEISLAELPQALKRILRGELRGRTVVRLA | soluble |
| MTIPLPGLEVRGSKTGKPIMALLDLLGRTWSLGIIWNLHSGPATFRELQQRCEKISPTLLNTRLKELKTLQLVECQEAGYQLTHQGLDLFDIISPLGSWSSQWAQGLKEDSK | not soluble |
| MVNKEHFSKKFDADLEEIRTRVLQMGGLVEEQIKNAIEALTEGNEHMIEQVIDNDHRVNAMEVKIDELCSQIIVRRQPTAIDLRMIMTVINTITDLERIGDEAAKIARMAKLIYAADRMYTPRFVEIRHIAAIAMDMLRKALDAFARVDPNASAEIVRQDEQVDEEFRSIIRHLVTFMMEDPRKISTAIEILFAAKAVERIGDHAKNMSEYVVYMVKGKDVRHVSADEIEREVGK | not soluble |
| MGSDKIHHHHHHMLNQSNELNAWDRDHFFHPSTHMGTHARGESPTRIMAGGEGVTVWDNNGRKSIDAFAGLYCVNVGYGRQKIADAIATQAKNLAYYHAYVGHGTEASITLAKMIIDRAPKGMSRVYFGLSGSDANETNIKLIWYYNNVLGRPEKKKIISRWRGYHGSGVMTGSLTGLDLFHNAFDLPRAPVLHTEAPYYFRRTDRSMSEEQFSQHCADKLEEMILAEGPETIAAFIGEPILGTGGIVPPPAGYWEKIQAVLKKYDVLLVADEVVTGFGRLGTMFGSDHYGIKPDLITIAKGLTSAYAPLSGVIVADRVWQVLVQGSDKLGSLGHGWTYSAHPICVAAGVANLELIDEMDLVTNAGETGAYFRAELAKAVGGHKNVGEVRGDGMLAAVEFVADKDDRVFFDASQKIGPQVATALAASGVIGRAMPQGDILGFAPPLCLTREQADIVVSKTADAVKSVFANL | not soluble |
| MSLLNSVSAIFLATAMTFAALPQDAQAQDYRFNTVQVDGNQRIETSTIISRMGIERGKTISAGALNDAYQRLLDSGVFETVELIPRGNTLVVKVVEHPTINRINFEGNRRVKDETLEGAIGSQSRRVFTPEQAERDAATIAEIYSTQGRVAATVVPRIIRRSDNRVDLVFEISEGDTIEIERVSFVGNRVFSDRRLRRILETKQAGFLRTFIRSDTFIADRIEFDKQVLRDFYLSRGHVDFRVNSANVEFTRERDAFFLVMDVTEGQQFSFGKITTVSEIPGVEAPAYQDVLKIKPGVVYSPSLVENSIARMERLGLKNGVDFLRVEPRITRNDRDLTLDIEFALVKGPRIFVERIDIEGNTTTLDQVIRRQFRTVEGDPFNPREIRESAERIRALGFFGDANVETREGSTPAQVIVDVDVEEKPTGSLSFGGSYSVSDGFGVAIGLTEDNWLGRGQRLGLTLSTAQDAEQYVLSFTEPQLLGRDLRFDIDLGVANTNSSFASYDTERAFFAPGITFRLGELSTLQLRYRWEASEMVQRTATTVSGAVIASEIAQGKKSSSALGLTYTYDSRIGGLNPNAGVLFEVGVDAAGLGGDNEYFKTSAKAIAQTRVWHEEITLRASLDVGAFTWQGSGFSRAIDRFVIGPNTFRGFEPAGVGPRDQSNGVDDAIGGNYYAVARFEAEFPLGLPEELGLRGGLFYDVGNVWDVSDVNTAGGTIVGADGSFRHVIGFSLLWTTAFGPLRFNFSKALKKETFDKEQSFDLTIQAREGHHHHHH | not soluble |
| VRQLLGLEGPIKRVECFDISHTMGEATVASCVVFDAVGPVRSQYRRYNITGITPGDDYAAMRQAIERRFRRAVEEDKQGERPDVLFIDGGAGQLAQAKMALNAVGVESVLLVGVSKGEERRAGHETLIMLDGQELHPGAASPALQFIQQVRDEAHRFAI | not soluble |
| PGKGEGSPVGIAILGYGTVGSQVLRLLTENHNDFQHRAGGPLEIKGVAASSVEKHRGSLADQLGLLTDDARSLIARDDVDIVVEVIGGIDYPRELILEALHSGKSVVTANKALVAAHSEELAAAADEAGVDLYFEAAVAAAIPVLGPLRRSLAGDQIQSVAGIVNGTTNFILDAMDSTGASYDDMLAEATRLGYAEADPTADVEGHDAASKAAILASLAFHTRVTYADVYCEGISKITADDINAAKEAGFTIKLLAICERLNVDGVEKVSARVHPTLVPRNHPLASVDKSFNAIFVEAEAAGRLMFYGNGAGGNPTASAVLGDIVGAARNKVFGGRAPGESTYADLPIAPFGEVPTRFHIDMEVEDRVGVLADLAKTFSNHGISLRTVRQAEKDGHARLIVVTHTAKESELEATVEQIKNSDSVKKINSVIRLAG | soluble |
| MERTVKLRVKVDYSTYSALKEVEKEYREVLEDAINYGLSNKTTSFTRIKAGVYKTEREKHKDLPSHYIYTACEDASERLDSFEKLKKRGRSYTEKPSVRRVTIHLDDHLWKFNLDTISISTKRSRILISPTFPKIFWRYYNTEWRIASEARFRLMKGNVVEFYVIFKRDEPKPYEPKAFIPVDLNENSVSVLINSKPLLLETNTKKITLGYEYRRKAITTGKSTKDREVRRKLKRLRERNKKVDIRRKLAKLIVKEAFESRSAIVLEDLPRRTPEHMIKDVKDKQLRLRIYRSAFSSMKNAIIEKAREFGVPVVLVNPSYTSTVCPIHGANIVYQLDGGDAPRVGVCEKGKEKWHRDVVALYNLARRAGDVSPVPLGSKESHDPPTLSGWLRAKSLHSIMNEHKMIEMKVLEHHHHHH | soluble |
| MIRFEHVSKAYLGGRQALQGVTFHMRPGEMAFLTGHSGAGKSTLLKLICGIERPSAGKIFFSGHDITRLKNREVPFLRRQIGMIFQDHHLLMDRTVYDNVAIPLIIAGASGDDIRRRVSAALDKVGLLDKARNFPIQLSGGEQQRVGIARAVVNKPAVLLADEPTGNLDDALSEGILRLFEEFNRVGVTVLMATHDIGLISRRSYRQLVLSDGHLHGGLANE | not soluble |
